Test results published in the supplement of paper PMC7125110.
± gives the standard error. Fewer inactive variants are shown than the library holds.

B1: glmS ribozyme (parent)
chain: AUAAAAGCGCCAGAACUACAGAAAUGUAGUUGACGAGGAGGAGGUUUAUCGAAUUUUCGGCGGAUGCCUCCAAA

Experiments:
Settings in all cases: with glucosamine-6-phosphate
[1] = variants of: B1; experiment: self-cleavage kobs at 160 uM GlcN6P; higher = faster cleavage; RNA array
Summary of the method: (§1)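 Glucosamine-6-phosphate (40 μM to 10 mM) in HEPES/KCl/Mg(OAc)2 buffer was flowed over sequenced MiSeq chips, and tiles were imaged over ~14 h. Barcoded ribozyme variants there had been transcribed in situ by E. coli RNA polymerase and were tracked through a hybridised Cy3 probe at 37 °C. One- or two-exponential decay fits to per-tile medians, normalised to baseline and to non-cleaving reference variants, gave kobs. kcat and KM came from weighted Michaelis–Menten fits across concentrations.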

[2] = variants of: B1; experiment: self-cleavage kobs at 640 uM GlcN6P; higher = faster cleavage; RNA array
Summary of the method: as §1

[3] = variants of: B1; experiment: self-cleavage kobs at 2500 uM GlcN6P; higher = faster cleavage; RNA array
Summary of the method: as §1

[4] = variants of: B1; experiment: self-cleavage kobs at 10000 uM GlcN6P; higher = faster cleavage; RNA array
Summary of the method: as §1

Variant	self-cleavage kobs at 160 uM GlcN6P [1]	self-cleavage kobs at 640 uM GlcN6P [2]	self-cleavage kobs at 2500 uM GlcN6P [3]	self-cleavage kobs at 10000 uM GlcN6P [4]
G66A C67A C70U	0.000193 ± 4.7e-05 s⁻¹	0.000467 ± 0.0001 s⁻¹	0.000861 ± 0.0002 s⁻¹	–
A6C U54G C70U	–	6.45e-05 ± 2.2e-05 s⁻¹	–	–
A6C A15U G29A A53G	–	< 1e-05 s⁻¹	–	–
A6G A15U G32C U57G G59U	–	< 1e-05 s⁻¹	–	–
A53C G63C	< 1e-05 s⁻¹	–	< 1e-05 s⁻¹	< 1e-05 s⁻¹
A52U U57A C68U	8.55e-05 ± 2.1e-05 s⁻¹	0.000196 ± 5.5e-05 s⁻¹	0.000613 ± 0.00014 s⁻¹	–
A6C G29C A36U G43U G66A	–	< 1e-05 s⁻¹	–	–
A6C G38U G40A A48G A52U G63C	–	< 1e-05 s⁻¹	< 1e-05 s⁻¹	–
A6C G13U C50G G62A C68U	–	0.000276 ± 0.0001 s⁻¹	0.000212 ± 9.7e-05 s⁻¹	–
U55G U56C	0.000157 ± 3.8e-05 s⁻¹	0.000938 ± 0.00021 s⁻¹	0.00118 ± 0.00028 s⁻¹	0.00614 ± 0.0016 s⁻¹
C50U C67G	0.000148 ± 6.3e-05 s⁻¹	2.88e-05 ± 1.2e-05 s⁻¹	2.44e-05 ± 1.1e-05 s⁻¹	–
U56A G60U	< 1e-05 s⁻¹	–	–	–
U57C G62C	< 1e-05 s⁻¹	< 1e-05 s⁻¹	< 1e-05 s⁻¹	< 1e-05 s⁻¹
A6G G9A G41U A42U C70A	–	< 1e-05 s⁻¹	< 1e-05 s⁻¹	–
A52G C67U C71G	4.58e-05 ± 2.3e-05 s⁻¹	7.65e-05 ± 1.9e-05 s⁻¹	0.000162 ± 5.9e-05 s⁻¹	–
A6U A12G A39G G63C	–	< 1e-05 s⁻¹	< 1e-05 s⁻¹	–
A6G G63U A64C C67U U69G	–	< 1e-05 s⁻¹	< 1e-05 s⁻¹	–
U54G C58G C67G	0.000136 ± 3.4e-05 s⁻¹	0.000215 ± 7.1e-05 s⁻¹	8.44e-05 ± 3.2e-05 s⁻¹	–
A6C U55G U65G C67U	–	< 1e-05 s⁻¹	–	–
A6C G29U A33U	–	< 1e-05 s⁻¹	–	–
A6G A33G U47A	–	< 1e-05 s⁻¹	–	–

Variant	self-cleavage kobs at 160 uM GlcN6P [1]	self-cleavage kobs at 640 uM GlcN6P [2]	self-cleavage kobs at 2500 uM GlcN6P [3]	self-cleavage kobs at 10000 uM GlcN6P [4]
C50G U65C	4.48e-05 ± 1.6e-05 s⁻¹	0.000255 ± 0.0001 s⁻¹	4.37e-05 ± 2.1e-05 s⁻¹	–
A6U C8A C11U C50G	–	0.000402 ± 0.00018 s⁻¹	0.000125 ± 4.7e-05 s⁻¹	–
C50G A53U C68G	0.000236 ± 6.7e-05 s⁻¹	0.000668 ± 0.00018 s⁻¹	–	–
U54A U57A U65C	< 1e-05 s⁻¹	–	–	–
A6C C10A G32A G51A A52G A53G G59C G63U C68A	–	0.000154 ± 5.6e-05 s⁻¹	–	–
G66U C68U C70U	7.05e-05 ± 2.3e-05 s⁻¹	–	0.000104 ± 2.7e-05 s⁻¹	–
A6G G62U C71G	–	< 1e-05 s⁻¹	–	–
G51C G59U C71U	< 1e-05 s⁻¹	–	< 1e-05 s⁻¹	–
U54G C68A	6.58e-05 ± 2.7e-05 s⁻¹	6.59e-05 ± 2.9e-05 s⁻¹	0.000107 ± 2.7e-05 s⁻¹	–
A6G G40U C67A	–	< 1e-05 s⁻¹	–	–
U57G C68U C71U	4.43e-05 ± 1.8e-05 s⁻¹	–	5.05e-05 ± 2.4e-05 s⁻¹	–
A53C U54G	0.000308 ± 0.00011 s⁻¹	0.000352 ± 0.00012 s⁻¹	0.000803 ± 0.00021 s⁻¹	–
A6C G38U G62C C70U	–	< 1e-05 s⁻¹	–	–
A6G A48U C61U	–	< 1e-05 s⁻¹	< 1e-05 s⁻¹	–
U54C U55A	0.00144 ± 0.00036 s⁻¹	0.00609 ± 0.0028 s⁻¹	0.00974 ± 0.0036 s⁻¹	–
A6U A12G A14U	–	< 1e-05 s⁻¹	–	–
A6G A52G G60A	–	< 1e-05 s⁻¹	< 1e-05 s⁻¹	–
C50U U56A	< 1e-05 s⁻¹	–	–	–
A6U A39G A48G	–	< 1e-05 s⁻¹	< 1e-05 s⁻¹	–
A6G A12C U55G	–	7.46e-05 ± 1.3e-05 s⁻¹	0.000177 ± 3.7e-05 s⁻¹	–
U57G C58A G63U	< 1e-05 s⁻¹	–	–	–

Variant	self-cleavage kobs at 160 uM GlcN6P [1]	self-cleavage kobs at 640 uM GlcN6P [2]	self-cleavage kobs at 2500 uM GlcN6P [3]	self-cleavage kobs at 10000 uM GlcN6P [4]
C50U C61A	9.85e-05 ± 4.8e-05 s⁻¹	2.67e-05 ± 1.1e-05 s⁻¹	3.11e-05 ± 1e-05 s⁻¹	–
U54A U56C G66A C70U	7.54e-05 ± 1.5e-05 s⁻¹	0.000185 ± 4.1e-05 s⁻¹	0.000395 ± 9.4e-05 s⁻¹	–
U55C G59C	< 1e-05 s⁻¹	< 1e-05 s⁻¹	–	–
A6C G44A A64G	–	< 1e-05 s⁻¹	–	–
C50G G59U C70U	4.6e-05 ± 2.1e-05 s⁻¹	9.86e-05 ± 2.5e-05 s⁻¹	8.37e-05 ± 3.5e-05 s⁻¹	–
A6G G13C G32A G66U	–	< 1e-05 s⁻¹	< 1e-05 s⁻¹	–
C50G C67G	7.32e-05 ± 1.3e-05 s⁻¹	5e-05 ± 7.7e-06 s⁻¹	–	–
A53U G62U A64U	< 1e-05 s⁻¹	< 1e-05 s⁻¹	< 1e-05 s⁻¹	–
A6C C10G G41U	–	< 1e-05 s⁻¹	< 1e-05 s⁻¹	–
A6G C8U U31G C71G	–	< 1e-05 s⁻¹	–	–
A6G G51U U56A C71U	–	< 1e-05 s⁻¹	–	< 1e-05 s⁻¹
A6U A15G A48U	–	< 1e-05 s⁻¹	–	–
A6G U31G A53G	–	4.09e-05 ± 1.9e-05 s⁻¹	0.000162 ± 3.5e-05 s⁻¹	–
A6C C8G U54C	–	< 1e-05 s⁻¹	–	–
U55G U56G U69C	0.000134 ± 3.4e-05 s⁻¹	0.000115 ± 2.6e-05 s⁻¹	0.000201 ± 4.3e-05 s⁻¹	–
A6G G43U U69G	–	< 1e-05 s⁻¹	–	–
G59C G63U C71A	< 1e-05 s⁻¹	–	–	–
A6G G41A C50A G62U	–	< 1e-05 s⁻¹	–	–
A52G C68G U69C	5.98e-05 ± 2.7e-05 s⁻¹	–	–	–
